The text below walks through data of the DeepSol protein solubility set.

The series can be described thus: soluble on expression in E. coli; label from the status in PepcDB or PDB records.
For the sequence “MTTLLNPYFGEFGGMYVPQILMPALNQLEEAFVSAQKDPEFQAQFADLLKNYAGRPTALTKCQNITAGTRTTLYLKREDLLHGGAHKTNQVLGQALLAKRMGKSEIIAEVGAGNHGVASALASALLGLKCRIYMGAKDVERQSPNVFRMRLMGAEVIPVHSGSATLKDACNEALRDWSGSYETAHYMLGTAAGPHPYPTIVREFQRMIGEETKAQILDKEGRLPDAVIACVGGGSNAIGMFADFINDTSVGLIGVEPGGHGIETGEHGAPLKHGRVGIYFGMKAPMMQTADGQIEESYSISAGLDFPSVGPQHAYLNSIGRADYVSITDDEALEAFKTLCRHEGIIPALESSHALAHALKMMREQPEKEQLLVVNLSGRGDKDIFTVHDILKARGEI”, the “soluble on expression in E. coli” value was “soluble”. Then “DNRLKEENPDSTLRDTEYIDVGESPDGGKYRGVILFELGQLNKTNKIEKATLSLFWYYPEESRKEDTILEVYRPEKWCEEHISWGAREINTPWKNPGGDWYDKNGVSQGSTPYSTITFKSSSLPDNRYYELDVTELVREYISGKYENTGFLIKSRAEDSDYIAFYSSEWQNKNQMPRLSIEYKNE”, with “not soluble”. As for “MAHHHHHHMPTNAAQALEKLVPGRLLQLADNGTPTIVTPLGNEGSLNALIHAYKGKGYLPYFTHAVKAAQRSLVNELRAAGVEVPNGAEASHLEGVCGVHCRDEASCSHIIPDEHITATLYGEDTDDTRMIVACDPIQTKLRDDCVECFPRVNKVSGWEELVVRVHLFYPNTVPCMSVQDRRARLVTQKQFVPKNARTLQGYHVFHYAKRGSSVRTPHCESMFPYTPKTTESKGFTRENRCTAITVESVFVRDPARQQRPFYAEDAGQARVYFSYLRVDAFVTDDELVEHFPLESMDVAAMPAFTDNRYVEKYHVLVRLYLLAHDQGWTATQPHGCPHPLGDRVGLPVLFRSCATEVIVPDACSHDSQLLLRQRLLPDVEMQVTRFCFRRIVSEVLRQRVVAAAADTPECCIPVVCYMPYSDRVPVFTDKQVGVLARLYPHLGIRRPTSRREWADLSRTLYQHCISLFDILAAVGVPLRDAHGAVIDTDAYVPYTADMADDYFLVIANRPLRDYTCVTNQRWLCEQLLLPDHRPPISARAFAAWVRYWNAMAQLKHELEKQVTLDTVSAHLGLRLPAGKTGQRAACLVNGLVTDAKGGLIFPKLGGRRFRDREHVGALLPGAPVLYSFWVDGKLQFTYVRMPMRFVRGLPLKQVNGQRPVQSVIAAGGAPANRGDGTQRGGGQVGEERRANVAIHA”, the “soluble on expression in E. coli” value is on record as “not soluble”. On to “MGSDKIHHHHHHMERITILHTNDLHSHFENWPRIRRYLKTTRQQVMADGATVYTFDLGDHVDRVHPVSEATNGQQNIQLMNQIGYDGVTIGNNEGLGFVRAQLDHLYDHANFPVILGNLRIPDTHELPDWAIDHRLLTTAAGTRLLVLGLTAPYHLTYPLAGWQILDVQPTLAALLHRFAGQFDVCVLLSHLGLDVDRLLAKRFPQVTVIIGSHTHHLLPHGEHDHQSLLAAAGKFGRYIGKIELSITPDHQVKSAVASVTETATLPVADGDTAEITSLQDLGESILSEQRVANLPTAMEADPTGQPRLVREGLHAIAEYAGTQAAILNAGLFLQDLPSGVVNQNQLHQLLPHNMHVMTVTLSGYDLWRLVQEFELARLFLRRFPQKGMGFRGKIFGELNYLGLAYDAVTHQVTWRGEPLSPTRQYRIAMVDHYLFIPFFPTISIVGKNQILYDDLLREVFAQYLARHYPLT”, for which the “soluble on expression in E. coli” value is given as “not soluble”. Then “MSNSEPSTSTPSGKTKKRGKKCETSMGKSKKSKNLPRFVKIQPIFSSEKIKETVCEQGIEECKRMLKGHFNAIKDDYDIRVKDELDTDIKDWLKDASSSVNEYRRRLQENLGEGRTIAKFSFKNCEKYEENDYKVSDSTVTWIKPDRTEEGDLMKKFRAPCSRIEVGDISPPMIYWVPIEQSVATPDQLRLTHMPYFGDGIDDGNIYEHLIDMFPDGIHGFSDNWSYVNDWILYKLCRAALKDYQGSPDVFYYTLYRLWPNKSSQREFSSAFPVLCENFAEKGFDPSSLEPWKKTKIAEGAQNLRNPTCYACLAYTCAIHGFKAEIPIEFPNGEFYNAMLPLPNNPENDGKMCSGNCWKSVTMKEVSEVLVPDSEEILQKEVKIYFMKSRIAKMPIEDGALIVNIYVFNTYIPFCEFVKKYVDEDDEESKIRSCRDAYHLMMSMAENVSARRLKMGQPSNRLSIKDRVNNFRRNQLSQEKAKRKLRHDSLRIQALRDGLDAEKLIREDDMRDSQRNSEKVRMTAVTPITACRHAGPCNATAENCACRENGVCSYMCKCDINCSQRFPGCNCAAGQCYTKACQCYRANWECNPMTCNMCKCDAIDSNIIKCRNFGMTRMIQKRTYCGPSKIAGNGLFLLEPAEKDEFITEYTGERISDDEAERRGAIYDRYQCSYIFNIETGGAIDSYKIGNLARFANHDSKNPTCYARTMVVAGEHRIGFYAKRRLEISEELTFDYSYSGEHQIAFRMVQTKERSEKPSRPKSQKLSKPMTSE”, with “not soluble”; and “SGDRSMVEVLADHPGELVRTDSPNFLSSVLPTHWRSNKTLPIAFKVVALGDVPDGTLVTVMAGNDENYSAELRNATAAMKNQVARFNDLRFVGRSGRGKSFTLTITVFTNPPQVATYHRAIKITVDGPREPRRHRQKLDD”, with “soluble”; and “MAHHHHHHMQYNLIGSKINNHYVVDPYVSLLYLKRAYKFLRLLKDSGGEAIILGNKHREVHLEHYFGNVQRKETCSLNILTNVTKRYDLLICTDLPLFYPYMRNVLIPKMLVADGATFVKYKTFLHAFDYFIPLTGEKLDRHLHYVLARRYLSGGELR”, with “not soluble”. “MQPTLGAQAGSMLFRDASGRYCASLAGYRFLSAFQPIFYKGGSLFGHEALLRVVDEGGEWRPPDRFLASLAPGMALEADRLARLIHVRNFAQSGQGGCLCLNLMPATVQEDQSGRTHLPLLNSMLQSVELDSGGVIFELPEFDVEHHGQPLLQGMRHAADMGFGLAVDDFGALPARRDKMGELCPDIIKIDRSLLLDYMAGQTQRLPALLEFGWQIGSRMLVEGIETAEQLEAMRALGVELYQGYYLGRPGELPVLRQL”: the “soluble on expression in E. coli” value is on record as “not soluble”. Turning to “DKELFFINVYDITASKKAERELIESEEKFKQVVELSVDGIIIGTDSGKIVDCNGAACRIFGYDKEEILKLQVIDLFPGDLNIIAHDITSCNKAAGEKTVERINQKKDGTSFPAEVAARRVKLGN”, the “soluble on expression in E. coli” value is given as “not soluble”.

On to “VKNFEWKTIFNWSKNNSMVESLPEGIDKIQIGSGVYNVKSYAEVGKPYGAIYAKTFKRDAEGYILCQLDGSPKEGQDYEYLGCVQADWRGGWNNVFRLGNFSFSVMFDFQKGGKFFSQTSIQSSVDGQSVKSLEGRDADFFSRKILGESDEERYGFMRPQNANTPTANGQIYPDWGRPKGVVLPNCRYDEDVEGLAGQQVLGYCTPERYWMHYTSRDISRFIYDASYVKLREITVSYDLPKKWLRKTPFQTFRVAAVGRNIATLFANTPHGLDPQATSTTGNAQGFERGFNLPSATYGFDIKVSF”, for which the “soluble on expression in E. coli” value was “not soluble”.

For “SLLVENLKQLQERVAVSDGRAKADLVIKNGRIINVFSGEIMDGDIAIKNGYIAGIGNFPDAEKIIDAAGAFIAPGFIDAHVHVESAMVTPAEFARVLLPNGVTTIVTDPHEIANVAGEKGIEFMLEDAKGVPIDMFVMLPSSVPATEGEHNGETLHAEKLHPLYRHEKVIGLAEVMDFPSVAKGSSDILTKIIDAKKEGGRIDGHGAGLTSADLNNYLAVGIRTDHESTTAKEATDRLRAGMFVMLREGTVGRDLLQTIPAVSEKNSHRFCFCTDDKLINDLITEGSINFNIRLAIKNGIDPITAIQMATINAANCHNLPYLGAVAAGYQADIVFLTDIETVEISKVLKNGEVVVDNGVRHEAAFKQQAAVPFVSPPINHHVSLQDLALPLTKETCYVIGMQPNSLFTEKRIEQVAIQDGKFVPTVENDLLKMAVVERHHDTGCVGLGIVKGFGLTEGAIATTVAHDSHNIVAVGISDEAMKAAIDHITQTGGGIAVVNGAGQVLHDLALPIAGLLSDKSYEEVENDLAGLLNAFKQISTADGFDPFLTLSFLTLPVIPELKLTDQGLFDFATFQIISNEVN”, the “soluble on expression in E. coli” value is recorded as “soluble”. For “MDLLKKEYTGITYISGPLLFVENAKDLAYGAIVDIKDGTGRVRGGQVIEVSEEYAVIQVFEETTGLDLATTSVSLVEDVARLGVSKEMLGRRFNGIGKPIDGLPPITPEKRLPITGLPLNPVARRKPEQFIQTGISTIDVMNTLVRGQKLPIFSGSGLPANEIAAQIARQATVRPDLSGEGEKEEPFAVVFAAMGITQRELSYFIQEFERTGALSRSVLFLNKADDPTIERILTPRMALTVAEYLAFEHDYHVLVILTDMTNYCEALREIGAAREEIPGRRGYPGYMYTDLATIYERAGVVEGKKGSVTQIPILSMPDDDRTHPIPDLTGYITEGQIQLSRELHRKGIYPPIDPLPSLSRLMNNGVGKGKTREDHKQVSDQLYSAYANGVDIRKLVAIIGEDALTENDRRYLQFADAFERFFINQGQQNRSIEESLQIAWALLSMLPQGELKRISKDHIGKYYGQKLEEIWGAPQALD”, the “soluble on expression in E. coli” value is on record as “soluble”. For “MSLKLPDEEFKLALEVARARIKAKDKFSRSDLWFDLEGLRYATHEVVADYRGRRLKGQGVKSIADVSCGVGIQLIFFAKHGIRSVGIDIDPIKIEFAKRNAEKYGVEVEWVVGDALSPEIIEKVDAEVIFSDPARPPEVPERNLEDLLPSPLKIYEAYKHKTDSFIFDLPPQIRREKVPWKGEFEYIDLFGHVNRLTEGHHHHHH”, the “soluble on expression in E. coli” value is “not soluble”. In the case of “KVSKGLILYPGAKVEIESYAPLARKIAESGYEVVIVKMPLNLAILGTNKAQKVMDSYNNIEHWVIGGHSLGGVAASNFARDNKLIEGVVFLASYPMGDELKELGKKVISIWGSKDGVVNFKSLVESKQKLPDDTTYVEIEGGNHAQFGDYGKQKGDNDAIISQEKQLNITANSIIKFLKNIS”, the “soluble on expression in E. coli” value was “not soluble”. For “MGSDKIHHHHHHACSWVDDDRSDCPTGCWLKLSYTYNMLNVDAVTTQVKDVTLFILDQEGNYIVREEVDSLTFHQNECTIQVPSLPQGDYTFLVWAGLADSLYRHTPTSLTLLRNEAGEQSEKLSSLFHGRLDNVHISGEYQVLALSLTKNTNILSCILQSQSAAPLDTDDFRLELTARNGCMDHRNTPTDSVSTCYLPFMQESANLEDIQVVHAGMNTLRLMENDDTRLRLIHQPDGKEIFDIPLTPYLLLSRNVETTYMPPQEYLDRQDRYNLIFFLSPTNDPQKPYICLQMQVNGWIIRINDAELDK”, the “soluble on expression in E. coli” value is “not soluble”. The value for “MGSDKIHHHHHHMLAGKTASEIFDNIRHLVQSGGLQPGEVLPPVRELASQLAVNRNTVAAAYKRLVTSGLAVSQGRNGTAIKARDTLPALEGGDPTTPLNDISSGNPDPARLPDLPRYLGQIARTPRLYGDAPIEPRLGQWAEAWFAREIAVPFAVNLASGAIDALERLLCALLLPGDGVVVEDPCFLSSINMVRYAGFTPCPVAVDAEGMDPDGLEEALRNGARAVILTPRAHNPTGCSLTETRAHALREVLARYPQVLAIVDDHFALLSATPWHSPLPASTQRWALVRSMSKTLGPDLRLAFIASDAATSAALRLRLNAGSQWVSHLLQDLTLACLTDEAFIASMTETRRHYRQQNEKLAAALARHGFSHATPGDGLNFWLPLPAASQPYALRLARAGWLVREGEVFGIRTPSHGLRLSLGRLSDAEISRLAADIAQALDAP” was “not soluble”; that for “MARCSVCGAPAVAYIRYQRRYLCRDHYLEFVESKVERAIMRHRLVGKGDRVLAAVSGGKDSSTLLAVLSRLSRRIGFHVVALYIHLGIYEYSEKSREASIRLASQLDVPLIVFDLNEVLGAGIPELAKASKRPPCSVCGMVKRYVINAAAVELGVDAVALGHNADDIAVYNLKSFLNQDLEAISKLGVKTESIPGVAVGRVRPLYYVYEKESFLYSLLAGLPFLHEEC” was “not soluble”.
